The series concerns the molecule itself. As to the kind of experiment: native gel or EMSA. (In general: Mobility shift assays separate free from complexed probe on a gel.)

B1: GST–endoE fusion protein (recombinant bacteriophage K1E endosialidase, wild type) (enzyme, UniProt P49714 1-706, looked up)
chain: MIQRLGSSLVKFKSKIAGAIWRNLDDKLTEVVSLKDFGAKGDGKTNDQDAVNAAMASGKRIDGAGATYKVSSLPDMERFYNTRFVWERLAGQPLYYVSKGFINGELYKITDNPYYNAWPQDKAFVYENVIYAPYMGSDRHGVSRLHVSWVKSGDDGQTWSTPEWLTDMHPDYPTVNYHCMSMGVCRNRLFAMIETRTLAKNELTNCALWDRPMSRSLHLTGGITKAANQRYATIHVPDHGLFVGDFVNFSNSAVTGVSGDMKVATVIDKDNFTVLTPNQQTSDLNNAGKNWHMGTSFHKSPWRKTDLGLIPRVTEVHSFATIDNNGFVMGYHQGDVAPREVGLFYFPDAFNSPSNYVRRQIPSEYEPDAAEPCIKYYDGVLYLITRGTRGDRLGSSLHRSRDIGQTWESLRFPHNVHHTTLPFAKVGDDLIMFGSERAENEWEAGAPDDRYKASYPRTFYARLNVNNWNADDIEWVNITDQIYQGDIVNSSVGVGSVVVKDSFIYYIFGGENHFNPMTYGDNKDKDPFKGHGHPTDIYCYKMQIANDNRVSRKFTYGATPGQAIPTFMGTDGIRNIPAPLYFSDNIVTEDTKVGHLTLKASTSANIRSEMQMEGEYGFIGKSVPKDKPTGQRLIICGGEGTSSSSGAQITLHGSNSSNAKRITYNGNEHLFQGAPIMPAVDNQFAAGGPSNRFTTIYLGSDPVTTS
Regarding B1, the “stoichiometry N” value came out at 3.

By stoichiometry N is commonly meant the number of molecules, sites or subunits per partner or assembly.

Values taken from PMC2034677 (Molecular microbiology, 2002).
